The assay has as its target T1, constitutively expressed nonmitochondrial Hsp70 homolog Hsc70 (human, UniProt P11142 2-646).
T1 construct: Endogenous; used as the control in the co-immunoprecipitation
In words: co-immunoprecipitation with hTid-1-specific mAbs, immunoblot for Hsc70. The method, then: FIG. 2C. Endogenous hTid-1L and hTid-1S coimmunoprecipitate with mtHsp70. Immunoprecipitation experiments were performed from U20S cells by using mAbs specific for either hTid-1, mtHsp70, or Hsc70. Immune complexes were analyzed by SDS/PAGE and Western blot with hTid-1-, mtHsp70-, or Hsc70-specific mAbs.
Because hTid-1 proteins have extremely well conserved J domains, we suspected that they may be interacting with the mitochondrial Hsp70 homolog, mtHsp70 (GRP75), which is also localized to the mitochondrial matrix. We performed coimmunoprecipitation-immunoblot experiments by using mAbs specific for hTid-1, mtHsp70, or the constitutively expressed nonmitochondrial Hsp70 homolog Hsc70 as a control. hTid-1-specific mAbs immunoprecipitate endogenous hTid-1L and hTid-1S in complex with mtHsp70 from human U2OS cells. (FIG. 2C).
Background: Immunoblotting shows a protein as a band on a membrane.

T1 sequence (P11142 2-646 limits assumed): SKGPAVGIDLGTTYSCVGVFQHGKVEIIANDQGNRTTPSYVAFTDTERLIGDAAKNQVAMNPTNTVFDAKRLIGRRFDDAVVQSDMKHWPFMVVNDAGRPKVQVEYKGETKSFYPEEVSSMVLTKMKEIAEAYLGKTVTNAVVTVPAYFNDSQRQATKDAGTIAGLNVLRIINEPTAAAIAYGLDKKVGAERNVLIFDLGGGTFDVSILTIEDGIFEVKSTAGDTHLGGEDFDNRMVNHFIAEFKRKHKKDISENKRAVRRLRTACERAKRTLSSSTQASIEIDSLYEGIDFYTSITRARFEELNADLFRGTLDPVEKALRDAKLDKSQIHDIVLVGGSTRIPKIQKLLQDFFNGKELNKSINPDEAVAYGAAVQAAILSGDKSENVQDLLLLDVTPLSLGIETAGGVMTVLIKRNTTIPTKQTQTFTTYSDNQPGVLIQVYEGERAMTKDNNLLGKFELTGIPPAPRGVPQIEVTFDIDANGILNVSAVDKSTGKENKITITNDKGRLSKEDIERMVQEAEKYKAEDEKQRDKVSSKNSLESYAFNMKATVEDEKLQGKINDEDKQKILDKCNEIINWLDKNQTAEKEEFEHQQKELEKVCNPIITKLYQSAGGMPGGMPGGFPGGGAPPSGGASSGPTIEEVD

B1: hTid-1S (other)
chain: VSLTGTKHNPFICTASFHTSAPLAKEDYYQILGVPRNASQKEIKKAYYQLAKKYHPDTNKDDPKAKEKFSQLAEAYEVLSDEVKRKQYDAYGSAGFDPGASGSQHSYWKGGPTVDPEELFRKIFGEFSSSSFGDFQTVFDQPQEYFMELTFNQAAKGVNKEFTVNIMDTCERCNGKGNEPGTKVQHCHYCGGSGMETINTGPFVMRSTCRRCGGRGSIIISPCVVCRGAGQAKQKKRVMIPVPAGVEDGQTVRMPVGKREIFITFRVQKSPVFRRDGADIHSDLFISIAQALLGGTARAQGLYETINVTIPPGTQTDQKIRMGGKGIPRINSYGYGDHYIHIKIRVPKRLTSRQQSLILSYAEDETDVEGTVNGVTLTSSGKRSTGN
notes: Endogenous protein from human cell lysates; also called short form of human Tid1; 40 kDa TID1 splice variant
For B1, the binding result is on record as “no binding”.

B2: hTid-1L (other)
chain: VSLTGTKHNPFICTASFHTSAPLAKEDYYQILGVPRNASQKEIKKAYYQLAKKYHPDTNKDDPKAKEKFSQLAEAYEVLSDEVKRKQYDAYGSAGFDPGASGSQHSYWKGGPTVDPEELFRKIFGEFSSSSFGDFQTVFDQPQEYFMELTFNQAAKGVNKEFTVNIMDTCERCNGKGNEPGTKVQHCHYCGGSGMETINTGPFVMRSTCRRCGGRGSIIISPCVVCRGAGQAKQKKRVMIPVPAGVEDGQTVRMPVGKREIFITFRVQKSPVFRRDGADIHSDLFISIAQALLGGTARAQGLYETINVTIPPGTQTDQKIRMGGKGIPRINSYGYGDHYIHIKIRVPKRLTSRQQSLILSYAEDETDVEGTVNGVTLTSSGGSTMDSSAGSKARREAGEDEEGFLSKLKKMFTS
notes: Endogenous protein from human cell lysates; also called long form of human Tid1; 43 kDa TID1 splice variant
Consider B2, for which the binding result was “no binding”.

Values taken from patent publication US20020086844A1 (Harvard, published 2002).
